No end group written: not given here.
Tests used:
[1] = biological target: T1, CPP32, bacterially expressed recombinant active enzyme (human, UniProt P42574 29-277, limits assumed); experiment: inhibition of hydrolysis of 10 µM DEVD-AMC, continuous fluorometric assay, bacterial lysate, 30 min preincubation
T1 construct: Bacterially expressed (as a GST fusion, as described for Mch3) and used as bacterial lysate; also called recombinant CPP32
T1 sequence (looked up): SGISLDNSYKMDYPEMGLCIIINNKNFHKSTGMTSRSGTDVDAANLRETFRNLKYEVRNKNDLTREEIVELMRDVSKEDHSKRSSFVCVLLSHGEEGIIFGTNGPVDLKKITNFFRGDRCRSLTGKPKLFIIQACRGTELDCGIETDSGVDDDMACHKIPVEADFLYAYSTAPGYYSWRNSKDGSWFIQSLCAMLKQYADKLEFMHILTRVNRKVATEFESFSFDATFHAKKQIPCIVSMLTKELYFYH

[2] = biological target: T2, Mch3α, bacterially expressed recombinant active enzyme (human, UniProt P55210 24-303, limits assumed); experiment: inhibition of hydrolysis of 50 µM DEVD-AMC, continuous fluorometric assay, bacterial lysate, 30 min preincubation
T2 construct: Expressed in E. coli as a GST fusion (Mch3α1 or Mch3α2); also called recombinant Mch3α
T2 sequence: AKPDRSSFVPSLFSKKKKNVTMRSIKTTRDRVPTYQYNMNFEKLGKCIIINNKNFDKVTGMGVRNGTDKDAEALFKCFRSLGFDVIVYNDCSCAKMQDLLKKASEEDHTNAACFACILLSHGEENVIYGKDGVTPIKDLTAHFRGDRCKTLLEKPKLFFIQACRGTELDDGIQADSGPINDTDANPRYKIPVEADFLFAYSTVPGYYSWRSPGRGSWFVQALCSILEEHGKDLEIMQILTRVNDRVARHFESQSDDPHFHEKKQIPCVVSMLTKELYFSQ

Ki [1]: 0.59 nM
Ki [2]: 1.8 nM
Binder: DEVD-aldehyde (also called DEVD-CHO) [tetrapeptide DEVD aldehyde]

— patent publication US20030119169A1 (IDUN PHARMACEUTICALS, published 2003)
